assay: soluble on expression in E. coli; label from the status in PepcDB or PDB records

Sequence | soluble on expression in E. coli
MLNEQIFSNARVVTAEQVFIGTVVVRDGLIAEVQTGRSQLSQAQDLEGDFLLPGLVELHTDNLEKHLSPRPGVDWPSMSAVISHDAQIVAAGITTVFDALSIGDINPKGKRMQQLPAMLQAIADANEAGLTRADHLLHLRCEVSHPDTLNVFRDLVGQPLVQLVSVMEHAPGQRQFALESKYREYYMGKYHMSHEEMDHFIVEQVANSTEYADRYRRAIVELCLARGLSIASHDDATMAHVEESAGFGMNIAEFPTTLEAAQGCRQLGMSVLMGAPNIVRGGSHSGNVAAASLARHGLLDILSSDYYPASLLQAAFMLAEQDNDCELPHAINMVSRTPAIAAGLADRGEIRVGLRADLIQARNHAGLPVIDKVWRQGKRVF | not soluble
MVNQEKTLDVGFTHADFAALLDRYDYHFNPGDIVAGTVFSIEPKGALIDIGAKTAAYIPIQEMSINRIESPEEVLQPNETREFFILADENEEGQLTLSIRRIEYMRAWERVRQLQAEDATVRSQVFATNRGGALVRIEGLRGFIPGSHISTRVNKEELVGEELPLKFLEVDEERNRLVLSHRRALVERKMNKLEVGEVVVGTVRGIKPYGAFIDIGGVSGLLHISEISHDHIDTPHSVFNVNDQVKVMIIDLDAERGRISLSTKQLEPEPGDMVKNPQLVYEKAEEMAERYRQQLLQQQQQAAGETPEEGMEDIPEATEDDSPAPILQEALEHHHHHH | not soluble
MKEFVHDYLAASVENEEEGGRMRWYPWHSAEYRFNHILNVVDIATKIARKEGANVDVTRVAALFHDIAKLEAEQDLHAEAGARIAREYLRAHGDYPESFIEQVCSAVEVHSYQGSLDDLPLEVQCLIEADILDKVGANGTALMLLRMGYESRTHMDAAEMVDRVIERGEDARERVQSDTAESLVHQRLKRTRWFQEWLTMEVAEMAVEDDLDDVATGMGDSLEHHHHHH | soluble
MAAGVAAWLPFARAAAIGWMPVASGPMPAP | soluble
MVEKELEEKVYKSIIKTIKDTPLEEFYTSGHRTCQGCESALVMRFLAKAAGPRTIVIGATGCMYVANTTYYTTSWIVPWVHTQLGGTGAAALGTAAALRALMRKGKIKQEPINVIAFCGDLGCADMGLSGVSNAMTYDYNLLIILYDNESSANTDIQETSMTPFGAQTSFSRPGKQRRIMKKRWKKSVVPMIIAGHRNVRYAATMTPAYPLDSMNKIRKALTIGGPTFIHSLDPCPKGWDYDPKFSHELGVLAVETGLWPLYEYIDGEIVYNEPTKSIVEGRMKRKPVKEYLEKQGRFSHFTEEDIEYVQRMVDEMYEEWEIPGVMPIKSINAKISDK | not soluble
RKEDHARLRALNGLLYKALTDLLCTPEVSQELYDLNVELSKVSLTPDFSACRAYWKTTLSAEQNAHMEAVLQRSAAHMRHLLMSQQTLRNVPPIVFVQDKGNAALAELDQLLAVAD | soluble
AIAAYRGLHALSQPAYLEDFINSVSNLPQELRDKYGRMGELDALVQRLKNEADALVRELLRKPGSSDPDRGRDTTSLQQMGTKLEQLQAQCVKLNQEKLQLAETAYNTVDQHVRDLDTKLREYEAYLRREGQWPDDLQSLVVNTDHTKMASMKNAAAAAAAAHTAAAPATTARSTQKAPSKGQRKSGEPSTLHIMDDMPIDPNEPRYCYCQNVSYGQMVACESGDCPYEWFHFECVGLTEPPKGEWICPDCRARTGRVR | soluble
MAYCNPGLESRPNKRNALRRHVVTGIGMKIVIAPDSYKESLSASEVAQAIEKGFREIFPDAQYVSIPVADGGEGTVEAMIAATQGSERHAWVTGPLGEKVNASWGISGDGKTAFIEMAAASGLELVPAEKRDPLVTTSRGTGELILQALESGATNIIIGIGGSATNDGGAGMVQALGAKLCDANGNEIGFGGGSLNTLNDIDISGLDPRLKDCVIRVACDVTNPLVGDNGASRIFGPQKGASEAMIVELDNNLSHYADVIKKALHVDVKDVPGAGAAGGMGAALMAFLGAELKSGIEIVTTALNLEEHIHDCTLVITGEGRIDSQSIHGKVPIGVANVAKKYHKPVIGIAGSLTDDVGVVHQHGIDAVFSVLTSIGTLDEAFRGAYDNICRASRNIAATLAIGMRNTG | not soluble
MDNKLSKIPTETFGEYIKRIRELRGYSQRKLSTLSDLSNTTICRIEKGSENGIENPDAETVVKLAEGLKLEKKALLIAAGYLDNENVEETTDLKECIRIALQKLGWINSYNDINEETITYVEFLLKKYGNKYKQIP | not soluble
MQSTPKPFDIEQPSLRVFLPAPELATGRAVVACPGGGYSGLAVNHEGYDWAPYFNKQGIALIVLKYRMPKGDRTLPISDAEAAMKMVRDSADVWNLNPNDIGIMGSSAGGHLASTIATHAPEALRPNFQILFYPVITMDKSFTHMGSHDNLLGKDASADLEKEFSNEKQVTKETPRAFIVYSDDDKVVPPANGVNYYLALNKKGVPSVLHIYPTGGHGWGIREDFLEHHHHHH | not soluble
MTELARLKFYATQPHPCSYLPEEQATTLFLDPSQPMDTQLYASLSEVGFRRSGDHLYRPHCQHCTACIAARIPVADFSPNRQQRRILKRNAELQVIRKRPSFNEEYYDLYRRYIEQRHADGDMYPPSRDQFATFLVRDLPFCCFFEFRLHGRLLAIAVTDVLPNGLSAVYTFYDPDEEQRSLGRYAILWQIAETERLGLQAVYLGYWIKNCRKMNYKTQYRPIELFVNQRWVALTLEHHHHHH | not soluble
SKTNHIVIIGYSRIGKCVALSLINRGDPVVIVEESKRLTDKAIADGFEVICGNIIKQDVMNAANMSNAYKVVITMCNTIEVGECIVNIRDMNKDIQIITHTLSDVDTAYLIDLGADIVVTDEEEIANGVIEHITGQRFIKNIAQS | soluble
GPGSMSTFETVKEEKLEFEKNCDQHIYEKALLTFKGVDGMDVYNCSAPFKYEGRTHIFGRVEKRLEWANSYVRLFVETNKDEFTLVPGNMVWQLEDPFVSNIDNEMFLGGTHIRKTNNRVFTYYCDFFRGTAENLSYFTTGPDNMKDIRLVKLANNKIGVFSRPKTAAHAFIGFTVINNVMELTPTVIEEAPPLNVIHTGAWGGVNQAYLLSSDKLGCISHYSYIDKDEDGNEITVYTNYSFVLNPYLREVEDARIIGTKGCYPKCSPKVHKLLDCAFSSGIVMREDGRCDLYSGLGDAHEGRITIDYPFEGHGTLIDNLHF | soluble
MGQMFGVACIDEQSGIVGQAWNNNSVRYISIDEDAVITIQSGPVVGKVAVSNDKTLAYGATINGANTVYVYKKSQAWVPSRLSDISSGTDVWAVALNGDNQWLYYVTANGRLGRIEVDNPTHNEILFEHNDFSGGPFAYIAYSAFEDCFYVTTDKNKILKVWVKEDGTHAYEQINQNNTGTTDGFLADEAKFQYLRGLTIDEDGNIFVCQGDNSHVIRKIAYDENMEKRYVTTVLGTSTVHGTDDGSPDIALFNGPQDISYDGNGGYWIAMRYEPALRKYSIELEHHHHHH | not soluble
MKPRPQSDAVDNEGPTPLSKGRRHLAMRLDDAWLGFQTRLAIRRGRVETVIPYTGYGSTSWVRVLARIVRSDPRDAAGHTNPLQESMRGWRNFTSAPVAHASVQVTIDGTVHDVVADRGGVVDARIPVALDAGWHTITLRSGESETVEAPVEIVADDAVFGVVSDIDDTVMVTALPRPFLAAWNTFVLNEHARTPTPGMAVLYERIARTAPSAPVLYLSTGAWNVAPTLSRFLSRNLYPAGPKLLTDWGPTPDRWFRSGQEHKRTSLERLAEEFPNIKWLLVGDDGQHDEAIYSEFAQRHPASVRAIAIRQLSAGEAVLAGGRSKSGGQPTPGVPWIYAPDGAGMSAQLEELGIIRNEVRSADDPEEGEVTTGSDLEHHHHHH | soluble
MSLYYKVAVSGSGKVLNVFSSEELLIGERVWLNWRNGKVKGYVLERSLSHENEATPSERDGKSFLSEGHVEIAKWVSERFFSPLGMVFDLFFPQGIDDYKEEVVVSESPFLDFDRMTLRDFLENFGEKALKEMVKKGLVRVEKNFYVKEPRPRVKKRLFLKKRISEIIREHLTVKQRMVVEYLQFNDGVPLEELLEDLEVSKSVIETLQRKNIVEIVSGDVFPKKRRILRGDFKGNISKENLFFGPTGSGKTEALFELIDVYSRKGTVLFLVPEVSVLTHTLSRLKGAFPDLKIGIYHSYLSRARKNLEWYKAASGKIDVLLGTRSAVFVPVKNLSLLIVDEEHDESFYQHTRPSYDAIVVARKISEVFDVPIILSSATPDLWTYREAKEGRIRTFNFTRRFGSLSVEVVDMRNEEKIGSFAKKTLDRIEETLEEGKRVLIYVRRKGFWGRVQCEVCGYVLKCENCDVSLVYHSDTHSLKCHQCGREYGLVESCPRCGGRLVGRTAGTERVERELKRYFPTRRIARVDREVVDNIMELESYIDKLIRGEIDILVGTRLITKSLSVPEIGLVCIMDVDSLIFNPDYSSSLRTFQLVVQALGRASRGDQGKAIIQTYNPEDTIIRKALEEDVNGFYAEELERRKALGYPPYRHLIQVAVKSKNPEVGKNSLTSLKEFLKGEEVLGPVEHWVFKLRGFYRHHLIVKTEDLERVLPKLEKALRILGIDAIVRVDPPTLEVSDEGHHHHHH | not soluble
MMELHRRVLEGDEAALKTLVSAAPNIGEVARDVVEHLSPGSYREGGPCAVCGGRLESVIASAVEEGYRLLRAYDIERFVVGVRLERGVAMAEEEVKLAAGAGYGESIKAEIRREVGKLLVSRGGVTVDFDSPEATLMVEFPGGGVDIQVNSLLYKARYWKLARNISQAYWPTPEGPRYFSVEQALWPVLKLTGGERLVVHAAGREDVDARMLGSGRPMIVEVKSPRRRRIPLEELEAAANAGGKGLVRFRFETAAKRAEVALYKEETARVRKVYRALVAVEGGVSEVDVEGLRRALEGAVIMQRTPSRVLHRRPDILRRRRLYSLDCSPLEGAPLMECILEAEGGLYIKELVSGDGGRTRPSFAEVLGREAVCIELDVVWVEHEAPAAPGLEHHHHHH | soluble
KPNWCPGCGDFSVQAAIQRAAANVGLEPDQLAVISGIGCSGRISGYINAYGFHGVHGRVLPIAQGVKMANRDVTVIASGGDGDGFAIGMGHTVHAIRRNINITYIVMDNQIYGLTKGQTSPRSDVGFKTKSTPSGSVESALNVMEMALTAGATFVAQSFSSDLKELTALIEKGINHNGFSLINVFSPCVTFNKVNTYDWFKENLTKLSDLEGYDPQNRMVAMQTLMEHNGLVTGLIYQNDKQPSYQDLIAGYDEKPLADQDLTIDEGKFKELVGEF | not soluble
MSDTPATRDFGLIDGRAVTGYVLSNRRGTRVCVLDLGGIVQEFSVLADGVRENLVVSFDDAASYADNPFQINKQIGRVAGRIRGAAFDINGRTYRVEANEGRNALHGGSHGLAVTRFNAVAADGRSVVLRSRLQQSADGYPNDLDLDISYRLDEDDRLTVSYRATALGDTVFDPTLHIYWRLDAGLHDAVLHIPQGGHMPADAEKLPVSTVSDDLEVFDFSRPKPLDAAVAALRRETGRAGFDDAYRVPSDIGRPAAVLQAGRRRRISIYSDRNGLVIFTAAPQDFARHDAGVYDALATEAQTLPDSLNWPEFGNIRLNKGDTREATIAYGIESLS | not soluble
MGSDKIHHHHHHMKLGYCSITWGGVVGHPGGVTSVKDLFYLTHGSMKDAIHDIASVGYEGVEMFDGNLAEYADKPEVLKELLNSSGVSLTSVYTGANFIYADILPDELHRIHRSAELAANFGADRLVVGGGARRAAGTTDEDYHRLGRALDSVTDIAESFGLSASYHPHLTTIVESPDELDKLMPLTRIGFCPDTAHLAAGGADPAAVIRKYPDRIRHVHLKDFRQDPFTFLPLGQGELDFPDILAAIRESGYDSWLMVELDNYDGDPREAAELSMKYLEKLL | not soluble

Source: the DeepSol protein solubility set
